Measurements: doi:10.1101/441683

Target: TssM (enteroaggregative Escherichia coli (EAEC))
Test: cryo-EM structure

**Q.** With TssJ (natural protein) as the substance, how does the stoichiometry N (TssJ per TssM) read?
**A.** 1.5
